Measurements: patent publication US6071709A, “Nerve growth factor/receptor complex” (The United States of America as represented by the …, priority 1992, dated 2000)

Biological target: p140^prototrk (Rattus norvegicus, UniProt P35739)
Test: NGF-dependent trk tyrosine phosphorylation in NR18 cells (PC12 derivative)
Assay type: cell-based
Set-up: the phosphorylation state of the trk receptor on the NR18 cell line; endogenous in cells; host or cells: NR18 cells
Conditions: 100 ng/ml NGF for 5 min
From the text: FIGS. 4A-B show NGF-dependent tyrosine phosphorylation of gp140trk in the human neuroblastoma cell lines LA-N-5, SY5Y, and dorsal root ganglia from mouse embryos. FIG. 4A, gp140trk was immunoprecipitated from untreated (-) or NGF treated (+) LA-N-5 cells (K. H. Sonnenfeld and D. N. Ishii, J. Neurosci. Res. 8:375-391 (1982)), SY5Y cells (K. H. Sonnenfeld and D. N. Ishii, (1982)), NR18 cells (M. A. Bothwell et al., Cell 21:857-866 (1980)), or PC12 cells. Immunoprecipitates were probed with P-tyr antibodies. The differences in trk protein mobilities are due to differences in glycosylation. FIG. 4B, Tyrosine phosphorylation of gp140trk in DRGs from 13.5 day or 14.5 day embryonic mice. DRGs were maintained in 100 ng/ml NGF for ≥10 min prior to lysis and immunoprecipitation with trk antibodies. trk immunoprecipitates were probed with P-tyr antibody. Tyrosine phosphorylated gp140trk from NGF-treated (+) PC12 cells or untreated (-) PC12 cells is shown for comparison. Samples were normalized for cell protein. Molecular weight markers in kDa are indicated.
Cell lines were treated with 100 ng/ml NGF for 5 min and gp140trk immunoprecipitated as in FIG. 1. DRGs were prepared by dissection for 13.5 or 14.5 day mouse embryos. […] Lysates were immunoprecipitated with trk antibody and the trk proteins were analyzed by antiphosphotyrosine immunoblots. […]

p140^prototrk, sequence (P35739 33-799): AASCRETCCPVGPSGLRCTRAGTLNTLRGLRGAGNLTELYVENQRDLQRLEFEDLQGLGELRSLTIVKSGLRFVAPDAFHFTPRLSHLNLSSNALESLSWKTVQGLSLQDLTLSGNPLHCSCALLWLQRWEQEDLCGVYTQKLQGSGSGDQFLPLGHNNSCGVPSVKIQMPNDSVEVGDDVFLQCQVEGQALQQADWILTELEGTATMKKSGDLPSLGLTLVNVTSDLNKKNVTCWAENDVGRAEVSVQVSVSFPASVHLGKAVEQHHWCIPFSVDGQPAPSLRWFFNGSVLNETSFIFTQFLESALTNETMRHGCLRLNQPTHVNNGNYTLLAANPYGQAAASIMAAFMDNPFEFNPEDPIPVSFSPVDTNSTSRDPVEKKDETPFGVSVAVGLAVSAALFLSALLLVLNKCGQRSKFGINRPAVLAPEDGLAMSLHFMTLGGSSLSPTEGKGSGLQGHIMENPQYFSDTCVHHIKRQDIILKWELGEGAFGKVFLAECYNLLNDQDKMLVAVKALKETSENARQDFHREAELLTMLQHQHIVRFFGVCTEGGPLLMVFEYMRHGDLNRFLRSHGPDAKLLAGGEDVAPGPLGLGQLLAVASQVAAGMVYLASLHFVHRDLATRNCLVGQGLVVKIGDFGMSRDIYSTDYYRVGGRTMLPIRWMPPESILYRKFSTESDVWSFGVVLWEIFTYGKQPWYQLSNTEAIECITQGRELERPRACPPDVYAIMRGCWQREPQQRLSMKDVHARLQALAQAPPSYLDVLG

## NGF: neurotrophic polypeptide factor, nerve growth factor; ligand of trk proto-oncogene receptor
  p140^prototrk phosphorylation in response to NGF: no phosphorylation
